System: Bacillus subtilis
Assay: cleaved RNA product abundance (RNA/gDNA barcode ratio) relative to median wild-type variant (ratio to wild type); higher = more accumulation of the downstream cleavage product
Procedure, shortened: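 Cleaved product abundance for each construct is its RNA-to-gDNA barcode ratio, scaled to the median construct carrying the unmutated site. Cleaved RNA was isolated on a gel, reverse transcribed and barcode-sequenced, with genomic DNA barcodes sequenced alongside and UMIs collapsed. The reporters were truncated aprE or tetM mRNAs with barcoded, mutagenized RNase Y cleavage-site windows integrated into the B. subtilis chromosome, and cultures grew in LB at 37°C from OD600 0.0003 to 0.3.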

[1] = experiment (reporter, strain, medium): exp 4a: truncated aprE reporter, strain BJT201 with 2% xylose (RNase J1 expressed), cleavage site: cggR-gapA (positions -7 to +36 mutated)
[2] = experiment (reporter, strain, medium): exp 2b: truncated aprE reporter, strain BJT200, cleavage site: cggR-gapA (positions -7 to +36 mutated)
[3] = experiment (reporter, strain, medium): exp 8a: truncated aprE reporter, strain BJT201 with 2% xylose (RNase J1 expressed), cleavage site: glnRA (positions -5 to +31 mutated)
[4] = experiment (reporter, strain, medium): exp 6: tetM reporter, strain 168, cleavage site: cggR-gapA (positions -7 to +36 mutated)

| Sequence | cleaved RNA product abundance [1] | cleaved RNA product abundance [2] | cleaved RNA product abundance [3] | also measured |
| --- | --- | --- | --- | --- |
| ACAGACGAAGGAGCCGCAAAGAAGTTATTACGGGATGAATGATCCCTCAATATAAATATCTCTCACTTATTTAAA | 0.247 | – | – | – |
| ACAGACGAAGGAGCCGCAAAGAAGTTATTAAGGCATTAATAATCCCTCAATATAAATATCTCTCACTTATTTAAA | 0.108 | 0.0847 | – | – |
| CGACATGTCCCGCTTCTTTCATTAATCCGTTTGCAACTGTTTTGCTATATACATTTACCATTTAAGAGGAGGAAT | – | – | 0.88 | – |
| CGACATGTCCCGCTTCTTTCATTAATCCGTTAGCAGCTGTTTTGCTATATACATTTACCTTTTAAGAGGAGGAAT | – | – | 0.754 | – |
| CGACATGTCCCGCTTCTTTCATTATTCCGTTAACAACAGTTTTGCTATATACATTTACCTTTTAAGAGGAGGAAT | – | – | 0.271 | – |
| ACAGACGAAGGAGCCGCAAAGAAGTTATTAAGTGATGAACAATCCCTCAATATAAATATCTCTCACTTATTTAAA | 0.109 | – | – | – |
| CGACATGTCCCGCTTCTTTCATTAATCCGTTAGCAACTGTTATGCTATATAGATTTACCTTTTAAGAGGAGGAAT | – | – | 1.29 | – |
| CGACATGTCCCGCTTCTTTCATTAATCCGTTAGCAACTGTTTTTCTATAAACATTTACCTTTTAAGAGGAGGAAT | – | – | 0.459 | – |
| CGACATGTCCCGCTTCTTTCATTAATCCGTTAGCAACTGTTTTGCAATATCCATTTACCTTTTAAGAGGAGGAAT | – | – | 0.156 | – |
| ACAGACGAAGGAGCCGCAAAGACGTTATTAATGGATGAATAATCCCTCAATATAAATATCTCTCACTTATTTAAA | 0.115 | 0.115 | – | – |
| ACAGACGAAGGAGCCGCAACAAGTTATTAAGGGATGAATAATCCCTCAATATAAATATCTCTCACTTATTTAAAG | 0.581 | – | – | – |
| CGACATGTCCCGCTTCTTTCATTAATCCATTAGCAACTGTTCTGCTATATACATTTACCTTTTAAGAGGAGGAAT | – | – | 0.271 | – |
| ACAGACGAAGGAGCCGCAAAGAATTTATTAAGGGATGAATAATGCCTCAATATAAATATCTCTCACTTATTTAAA | 0.177 | – | – | – |
| ACAGACGAAGGAGCCGCAAAGAAGGTATTAAAGGATGAATAATCCCTCAATATAAATATCTCTCACTTATTTAAA | 0.189 | – | – | – |
| ACAGACGAAGGAGCCGCAAAGCATTTATTAAGGGATGAATAATCCCTCAATATAAATATCTCTCACTTATTTAAA | 0.256 | – | – | – |
| ACAGACGAAGGAGCCGCAAAGAAGTTATTAAGGGATGAATAACACCTCAATATAAATATCTCTCACTTATTTAAA | 0.164 | – | – | – |
| ACAGACGAAGGAGCCGCAAAGAAGTTATTAAGAGATGAATAATCCCTCAATATACATATCTCTCACTTATTTAAA | 0.136 | 0.102 | – | – |
| ACAGACGAAGGAGCCGCAAAGAAGTTATTAAGGGCAGAATAATCCCTCAATATAAATATCTCTCACTTATTTAAA | – | 0.174 | – | – |
| ACAGACGAAGGAGCCGCAAATAAGTTATCAAGGGATGAATAATCCCTCAATATAAATATCTCTCACTTATTTAAA | 0.278 | – | – | – |
| ACAGACGAAGGAGCCGCAAAGATGTTATTAAGGGATGAAAAATCCCTCAATATAAATATCTCTCACTTATTTAAA | 0.733 | 0.583 | – | – |

| Sequence | cleaved RNA product abundance [1] | cleaved RNA product abundance [2] | cleaved RNA product abundance [3] | also measured |
| --- | --- | --- | --- | --- |
| CGACATGTCCCGCTTCTTTCATTAATCCGTTAGCAACTGTTTTACTATATAAATTTACCTTTTAAGAGGAGGAAT | – | – | 0.596 | – |
| CGACATGTCCCGCTTCTTTCATTAATCCGTTAGCAACTGTTTTGGTAGATACATTTACCTTTTAAGAGGAGGAAT | – | – | 0.115 | – |
| ACAGACGAAGGAGCCGCAAAGAAGTTATTAAGGGATGAATAATCCCTCAATATAAATTTCTCTCACTTATTTAAA | 0.761 | 0.72 | – | cleaved RNA product abundance [4]: 0.391 |
| ACAGACGAAGGAGCCGCAAAAAAGTTATTAAGGGATGAAGAATCCCTCAATATAAATATCTCTCACTTATTTAAA | 0.918 | – | – | – |
| ACAGACGAAGGAGCCGCACAGAAGTTATTAACGGATGAATAATCCCTCAATATAAATATCTCTCACTTATTTAAA | 0.197 | 0.121 | – | – |
| ACAGACGAAGGAGCCGCAAAGAAGTTATAAAGGGATGCATAATCCCTCAATATAAATATCTCTCACTTATTTAAA | 0.241 | 0.309 | – | – |
| CGACATGTCCCGCTTCTTTCATTAATCCGTTAACAACTGTGTTGCTATATACATTTACCTTTTAAGAGGAGGAAT | – | – | 0.24 | – |
| ACAGACGAAGGAGCCGCAAAGAAGTTATTAAGGGATGAATAATCACTCAAGATAAATATCTCTCACTTATTTAAA | – | 0.0892 | – | – |
| CGACATGTCCCGCTTCTTTCATTAATCCATTAGCAACTGTTTTGCTATATACATTTACGTTTTAAGAGGAGGAAT | – | – | 0.903 | – |
| CGACATGTCCCGCTTCTTTCATTAATCCGTTAGCAACTGTTTTGATATATATATTTACCTTTTAAGAGGAGGAAT | – | – | 0.766 | – |
| ACAGACGAAGGAGCCGCAAAGATGTTATAAAGGGATGAATAATCCCTCAATATAAATATCTCTCACTTATTTAAA | 0.441 | 0.259 | – | – |
| CGACATGTCCCGCTTCTTTCATTAATCCTTTAGCAACTGTTTTGCTATATACATATACCTTTTAAGAGGAGGAAT | – | – | 0.842 | – |
| ACAGACGAAGGAGCCGCAACGAAGTTATTAAGGGATGAATAATCCCTCAAAATAAATATCTCTCACTTATTTAAA | 0.357 | – | – | – |
| ACAGACGAAGGAGCCGCAAAGAAGTTATTAAGCGATGAATAATGCCTCAATATAAATATCTCTCACTTATTTAAA | 0.112 | – | – | – |
| ACAGACGAAGGAGCCGCAAAAAAGTTATCAAGGGATGAATAATCCCTCAATATAAATATCTCTCACTTATTTAAA | 0.507 | – | – | – |
| ACAGACGAAGGAGCCGCAAAGAAGTTATTAAGAGATGAATAATCCCTCTATATAAATATCTCTCACTTATTTAAA | 0.118 | – | – | – |
| CGACATGTCCCGCTTCTTTCATTAATCCGTTTGCAACTGTTTTACTATATACATTTACCTTTTAAGAGGAGGAAT | – | – | 0.879 | – |
| ACAGACGAAGGAGCCGCAAAGAAGTTTTTAAGGGATGAAAAATCCCTCAATATAAATATCTCTCACTTATTTAAA | 0.293 | – | – | – |
| ACAGACGAAGGAGCCGCAAAGAAGTTATTAAGGGATCAATAATCCCTCAATATAATTATCTCTCACTTATTTAAA | – | 0.468 | – | – |
| ACAGACGAAGGAGCCGCAAAGAAGTTATTAAGGGATGAAAAATCCCTAAATATAAATATCTCTCACTTATTTAAA | 0.445 | 0.499 | – | – |

| Sequence | cleaved RNA product abundance [1] | cleaved RNA product abundance [2] | cleaved RNA product abundance [3] | also measured |
| --- | --- | --- | --- | --- |
| ACAGACGAAGGAGCCGCAAAAAAGTTATTAAGGGATGAATATTCCCTCAATATAAATATCTCTCACTTATTTAAA | 0.566 | 0.665 | – | – |
| CGACATGTCCCGCTTCTTTCATTAATCCGTTAACAACTGTTTTGCAATATACATTTACCTTTTAAGAGGAGGAAT | – | – | 0.185 | – |
| ACAGACGAAGGAGCCGCAAAGAAGTTATTAAGTGATGAATAATCGCTCAATATAAATATCTCTCACTTATTTAAA | – | 0.522 | – | – |
| ACAGACGAAGGAGCCGCAAAAAAGTTATTAAGGGGTGAATAATCCCTCAATATAAATATCTCTCACTTATTTAAA | 0.602 | 0.759 | – | – |
| ACAGACGAAGGAGCCGCAAAGAAGTTATTAAGGTATGAAAAATCCCTCAATATAAATATCTCTCACTTATTTAAA | 0.145 | 0.0949 | – | – |
| ACAGACGAAGGAGCCGCAAAGAAGTTATTAAGGCATGAATAATCGCTCAATATAAATATCTCTCACTTATTTAAA | 0.0686 | – | – | – |
| CGACATGTCCCGCTTCTTTCATTAATCCGTTAGCAACTGTTTTGCTATATACAGTTACGTTTTAAGAGGAGGAAT | – | – | 0.192 | – |
| ACAGACGAAGGAGCCGCAAAGAAGTGATTAAGGGTTGAATAATCCCTCAATATAAATATCTCTCACTTATTTAAA | 0.263 | 0.15 | – | – |
| ACAGACGAAGGAGCCGCAAAGAAGCTAATAAGGGATGAATAATCCCTCAATATAAATATCTCTCACTTATTTAAA | 0.286 | 0.247 | – | – |
| ACAGACGAAGGAGCCGCAAATATGTTATTAAGGGATGAATAATCCCTCAATATAAATATCTCTCACTTATTTAAA | 1.1 | – | – | – |
| CGACATGTCCCGCTTCTTTCATTATTCCGTTAGCAACTGTTTTGCAATATACATTTACCTTTTAAGAGGAGGAAT | – | – | 0.626 | – |
| ACAGACGAAGGAGCCGCAAAGAGGTAATTAAGGGATGAATAATCCCTCAATATAAATATCTCTCACTTATTTAAA | 0.176 | – | – | – |
| CGACATGTCCCGCTTCTTTCATTAATACATTAGCAACTGTTTTGCTATATACATTTACCTTTTAAGAGGAGGAAT | – | – | 0.748 | – |
| CGACATGTCCCGCTTCTTTCATTAATCCGTTAGCAACTGTTTTCCTATATACATTAACCTTTTAAGAGGAGGAAT | – | – | 0.43 | – |
| ACAGACGAAGGAGCCGCAAAGAAGTTATTAAGGGATGACTAATCCCTCATTATAAATATCTCTCACTTATTTAAA | 0.208 | 0.155 | – | – |
| CGACATGTCCCGCTTCTTTCATTAATCCGTTAGCTACTGTTTTGCTATATATATTTACCTTTTAAGAGGAGGAAT | – | – | 0.617 | – |
| ACAGACGAAGGAGCCGCAAAGAAGTTATTAAGAGATGAATAATCCCTCAATATAAATATCTCTCACTTATTTAAA | 0.147 | 0.111 | – | cleaved RNA product abundance [4]: 0.135 |
| ACAGACGAAGGAGCCGCAAAGAAGTTATTATGGGGTGAATAATCCCTCAATATAAATATCTCTCACTTATTTAAA | 0.285 | – | – | – |
| CGACATGTCCCGCTTCTTTCATTATTCCGTTACCAACTGTTTTGCTATATACATTTACCTTTTAAGAGGAGGAAT | – | – | 0.289 | – |
| ACAGACGAAGGAGCCGCAAAGAAGATATTAAGGGATGAATAATCACTCAATATAAATATCTCTCACTTATTTAAA | 0.143 | 0.145 | – | – |

Source: the supplement of paper PMC11780869
